{"source": "paper PMC2975675", "key": {"GST-Rabin8-L196A (human)": {"target": "GST-Rabin8-L196A (human)", "assay": "pull-down"}, "GST-Rabin8-F201A (human)": {"target": "GST-Rabin8-F201A (human)", "assay": "pull-down"}}, "data": [{"substance": "Rab8a (in vitro translated Rab8A-T22N or Rab8A-Q67L) (from UniProt P61006 1-207) (natural protein)", "values": [{"measurement": "percent decrease of association against wild-type GST-Rabin8", "setting": "GST-Rabin8-L196A (human)", "value": 39, "unit": "%"}, {"measurement": "percent decrease of association against wild-type GST-Rabin8", "setting": "GST-Rabin8-F201A (human)", "value": 52, "unit": "%"}]}]}
